The record followed here is article PMC5906670, “Structural basis of epilepsy-related ligand–receptor complex LGI1–ADAM22” (Nature Communications, 2018).

As a reminder, the stoichiometry N is the number of molecules, sites or subunits per partner or assembly.

Data set [1] has as its target T1, ADAM22 ECD (C-terminal His6 tag) (human, UniProt Q9P0K1-1 26-729, p.Pro81Arg).
T1 construct: signal peptide in the construct; ADAM22, human, cDNA as NM_021723 except the p.Pro81Arg polymorphism in the Pro domain; also called ADAM22 ectodomain; source: Expi293F, transient, co-expressed with LGI1 EPTP-His6; purified from culture medium (Ni-NTA, SEC)
T1 sequence (looked up): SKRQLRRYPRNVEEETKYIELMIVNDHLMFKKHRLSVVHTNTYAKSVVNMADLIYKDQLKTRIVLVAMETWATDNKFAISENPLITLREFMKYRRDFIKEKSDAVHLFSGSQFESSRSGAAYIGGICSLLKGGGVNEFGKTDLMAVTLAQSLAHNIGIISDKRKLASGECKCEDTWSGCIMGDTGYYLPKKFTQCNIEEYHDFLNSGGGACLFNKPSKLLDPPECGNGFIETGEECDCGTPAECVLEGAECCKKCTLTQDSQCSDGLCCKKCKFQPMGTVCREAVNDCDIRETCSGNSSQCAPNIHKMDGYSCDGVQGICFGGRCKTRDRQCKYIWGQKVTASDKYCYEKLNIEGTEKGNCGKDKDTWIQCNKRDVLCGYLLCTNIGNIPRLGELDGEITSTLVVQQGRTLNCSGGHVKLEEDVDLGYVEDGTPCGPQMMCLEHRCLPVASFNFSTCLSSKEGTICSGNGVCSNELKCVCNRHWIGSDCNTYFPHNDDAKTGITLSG
Briefly: SEC-MALS; co-purified complexes, 1 g L^−1, ENrich SEC 650 column, 20 mM Tris-HCl (pH 7.5), 150 mM NaCl (standard condition). The note with it: both partners purified. In general terms: SEC sorts molecules by how far they enter the pores of the column.

Data set [2] concerns the molecule itself. Briefly: SEC-MALS; co-purified complexes, 1 g L^−1, ENrich SEC 650 column, 20 mM Tris-HCl (pH 7.5), 500 mM NaCl.
Data set [3] deals with the molecule itself. Briefly: SEC-MALS; co-purified complexes, 1 g L^−1, ENrich SEC 650 column, 20 mM Tris-HCl (pH 7.5), 150 mM NaCl (standard condition).
The target in data set [4] is T2, ADAM22 ECD (non-tagged) (human, UniProt Q9P0K1-1 26-729, p.Pro81Arg).
T2 construct: signal peptide in the construct; ADAM22, human, cDNA as NM_021723 except the p.Pro81Arg polymorphism in the Pro domain; source: Expi293F, transient, co-expressed with His6-tagged LGI1; purified as the complex (Ni-NTA, SEC)
T2 sequence (looked up): T1 sequence (looked up)
In words: SEC-MALS; co-purified complexes, 1 g L^−1, ENrich SEC 650 column, 20 mM Tris-HCl (pH 7.5), 500 mM NaCl. The note with it: both partners purified.

Data set [5] deals with the molecule itself. Briefly: SEC-SAXS; LGI1–ADAM22 complex (LGI1^R470A) at 5.7 or 8.2 g L^−1, ENrich SEC 650, 20 mM Tris-HCl (pH 7.5), 150 or 500 mM NaCl, 293 K; scattering curve compared with curves of the 2:2 crystal structure and a 3:3 model.
Data set [6] deals with the molecule itself. Briefly: crystal structure; LGI1^R470A–ADAM22 ECD complex, co-expressed and co-purified; sitting drop, 20 °C, 10% PEG8000, 0.1 M zinc acetate, 0.1 M MES-NaOH (pH 6.0); 7.13 Å.
The target of data set [7] is T2, ADAM22 ECD (non-tagged). In words: SEC-MALS; co-purified complexes, 1 g L^−1, ENrich SEC 650 column, 20 mM Tris-HCl (pH 7.5), 150 mM NaCl (standard condition). As to conditions: both partners purified.

Changes are numbered by the printed parent chain. In names and notes the source's numbering stands.

B1: LGI1 EPTP (domain or fragment, human, UniProt O95970-1 224-557, looked up)
chain: TEFAKSQDLPYQSLSIDTFSYLNDEYVVIAQPFTGKCIFLEWDHVEKTFRNYDNITGTSTVVCKPIVIETQLYVIVAQLFGGSHIYKRDSFANKFIKIQDIEILKIRKPNDIETFKIENNWYFVVADSSKAGFTTIYKWNGNGFYSHQSLHAWYRDTDVEYLEIVRTPQTLRTPHLILSSSSQRPVIYQWNKATQLFTNQTDIPNMEDVYAVKHFSVKGDVYICLTRFIGDSKVMKWGGSSFQDIQRMPSRGSMVFQPLQINNYQYAILGSDYSFTQVYNWDAEKAKFVKFQELNVQAPRSFTHVSINKRNFLFASSFKGNTQIYKHVIVDLSA
notes: LGI1, human, cDNA NM_005097; EPTP domain, residues 224-557; also called C-terminal epitempin-repeat (EPTP) domain of LGI1; EAR domain; source: Expi293F, transient, co-expressed with His6-tagged ADAM22 ECD; purified from culture medium (Ni-NTA, SEC)
For the molecule B1, in data set [1], the “stoichiometry N” value amounted to 1 LGI1 EPTP per ADAM22 ECD.

B2: full-length LGI1 (residues 37–557), C-terminal His6 (ligand, human, UniProt O95970-1 37-557, looked up)
chain: PAKPKCPAVCTCTKDNALCENARSIPRTVPPDVISLSFVRSGFTEISEGSFLFTPSLQLLLFTSNSFDVISDDAFIGLPHLEYLFIENNNIKSISRHTFRGLKSLIHLSLANNNLQTLPKDIFKGLDSLTNVDLRGNSFNCDCKLKWLVEWLGHTNATVEDIYCEGPPEYKKRKINSLSSKDFDCIITEFAKSQDLPYQSLSIDTFSYLNDEYVVIAQPFTGKCIFLEWDHVEKTFRNYDNITGTSTVVCKPIVIETQLYVIVAQLFGGSHIYKRDSFANKFIKIQDIEILKIRKPNDIETFKIENNWYFVVADSSKAGFTTIYKWNGNGFYSHQSLHAWYRDTDVEYLEIVRTPQTLRTPHLILSSSSQRPVIYQWNKATQLFTNQTDIPNMEDVYAVKHFSVKGDVYICLTRFIGDSKVMKWGGSSFQDIQRMPSRGSMVFQPLQINNYQYAILGSDYSFTQVYNWDAEKAKFVKFQELNVQAPRSFTHVSINKRNFLFASSFKGNTQIYKHVIVDLSA
notes: LGI1, human, cDNA NM_005097; 'full length, residues 37–557' (without the signal peptide); PDB 5Y31 holds the R470A mutant of the same limits; also called LGI1^WT; source: Expi293F, transient, co-expressed with non-tagged ADAM22 ECD; purified from culture medium (Ni-NTA, SEC)
Consider B2, for which the “stoichiometry N” value in data set [2] is 2 LGI1 chains in the assembly; in data set [3], 3 LGI1 chains in the assembly; in data set [4], 1 LGI1 per ADAM22 ECD (2:2).

B3: LGI1^R470A (residues 37–557), C-terminal His6 (ligand, human, UniProt O95970-1 37-557, looked up)
chain: B2 chain with R434A
notes: LGI1, human, cDNA NM_005097, residues 37-557; also called LGI1 (in the 'LGI1–ADAM22 complex'); source: Expi293F, transient, co-expressed with non-tagged ADAM22 ECD; purified as the complex (Ni-NTA, SEC)
B3: the “stoichiometry N” value was 3 LGI1 chains in the assembly in data set [5] and 2 LGI1 chains in the assembly in data set [6].

B4: LGI1^R474Q (residues 37–557), C-terminal His6 (ligand, human, UniProt O95970-1 37-557, looked up)
chain: B2 chain with R438Q
notes: LGI1, human, cDNA NM_005097, residues 37-557; R474Q is a human ADLTE mutation; source: Expi293F, transient, co-expressed with ADAM22 ECD; purified as the complex (Ni-NTA, SEC)
Regarding B4, the “stoichiometry N” value in data set [7] amounted to 1 LGI1 per ADAM22 ECD.
